# Experimental data as given in patent US20160031972A1 (XIAMEN INNOVAX BIOTECH, published 2016).
# B1: monoclonal antibody 5C4 (antibody, V domains shown)
# VH: EVQLQQSGAELVKPGASVKLSCTASGFNIKDTFFHWVKQRPEQGLEWIGRIDPADGHTKYDPKFQGKATITADTSSNTAFLQLSSLTSEDTAVYYCATTITAVVPTPYNAMDYWGQGTSVTVSS
# VL: DIVLTQSPASLAVSLGQRTTISCRASESVDSFDNSFIHWYQQKPGQPPKLLIFLASSLESGVPARFSGSGSRTDFTLTIDPVEADDAATYYCQQSNEDPFTFGSGTKLEIKR
# notes: Mouse hybridoma antibody purified from ascites; kappa light chain; also called 5C4 monoclonal antibody; 5C4 antibody
# What was measured:
# [1] = biological target: T1, RSV F protein in RSV-A2 virus preparation (Western Blot sample) (respiratory syncytial virus A2 strain, UniProt P03420 26-574); test: Western Blot, non-boiled sample
# T1 construct: Loaded boiled (denatured) or non-boiled (non-denatured); also called RSV A2 strain
# [2] = biological target: T2, RSV F protein on Hep2 cells infected with RSV-A2 (immunofluorescent assay) (respiratory syncytial virus A2 strain, UniProt P03420 26-574); test: immunofluorescence on RSV-A2-infected Hep2 cells, confocal microscopy
# T2 construct: whole, on cells
# [3] = biological target: T3, post-F protein (RSV-A2 F protein with P102A, I379V, M447V and fusion peptide positions 137-146 removed, … (respiratory syncytial virus, RSV-A2, UniProt P03420 26-524)); test: hybridoma screening, RSV-post F enzyme-linked immunosorbent assay
# T3 construct: Signal peptide, furin processing and the residue of the HRV 3C site left after cleavage are not described; also called RSV-post F; post-fusion F
binder,measurement,setting,value
B1,binding result,[1],binds
same,binding result,[2],binds
same,binding result,[3],no binding
